# Source: the supplement of paper PMC9732359
# ± gives the uncertainty stated by the source.
# Assay: protein stability index of a GFP-peptide fusion (yeast GPS) (PSI 1-4); higher = more stable; sorted into four equal gates, so the index is relative within each strain
# Conditions: doa10∆
# Outline: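 Peptides tiling yeast proteins in 17-residue segments were fused downstream of GFP, with Cherry expressed from the same plasmid. As a pooled library in yeast, mid-log cultures grown in leucine-free medium were sorted into four equal gates by GFP/Cherry fluorescence ratio. Gate plasmids were PCR-amplified and Illumina-sequenced, and barcodes linked reads to strains. Each peptide received a protein stability index equal to the sum of each gate's read frequency times its gate number.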
row,Sequence,protein stability index
1,ILDNINHNGSALLIEVF [ITC1],1.13 ± 0.096
2,ILDNTENYDDTELRQLF [DSN1],3.15 ± 0.066
3,ILDPQVTRFTTWNGSPF [YJL039C/NUP192],1.26 ± 0.09
4,ILDTSQSESRQKRQLHD [SNU114],3.23 ± 0.11
5,ILEELDFVRNELNDIDT [SMC3],3.08 ± 0.2
6,ILERAYKKLDIDGKVIQ [SNF2],3.16 ± 0.083
7,ILHGSKSQEQREHSLQL [PRP28],3.11 ± 0.1
8,ILKSLKNRSNRKRFHSQ [YOR098C/NUP1],3.08 ± 0.061
9,ILNLLNILTTHLSHPGT [ECM29],2.03 ± 0.042
10,ILNLYSSAHLIRINDEP [YML103C/NUP188],1.99 ± 0.096
11,ILSGFHNAGPVAGAGAA [RPP1B],3.01 ± 0.072
12,ILSINAIDYEPEYEKAM [SMC1],3.29 ± 0.076
13,ILTKEVQGSTLAQLTSK [RPS1A],3.27 ± 0.084
14,ILVFQVSMKANKYQIKK [RPL25],1.93 ± 0.052
15,ILVKRYSIEMKPYSGKL [ECM29],1.58 ± 0.048
16,IMECCQKNDTAAFKDIA [RRP40],3.08 ± 0.16
17,IMNMIENVEKKEAALKT [SMC2],1.76 ± 0.082
18,INELTLLVQKRFKYAPG [RPS3],2.83 ± 0.2
19,INFERIDEVFSWYLNTF [GRR1],2.22 ± 0.058
20,INFKSREAIRPGHEMED [AAR2],3.33 ± 0.097
21,INIDDLLYELTAFKATV [YJL039C/NUP192],2.58 ± 0.052
22,INKEIFHHWLVEFINKM [SRB8],1.49 ± 0.17
23,INQYQLLYNLKNDILTN [SWI1],1.63 ± 0.038
24,INSGLYSVLLESPLSVA [YML103C/NUP188],1.47 ± 0.058
25,IPDLSIQNDIYLNDLMI [RPN12],2.99 ± 0.046

row,Sequence,protein stability index
1,IPGGPKFEPLYPREEEE [PRP8],3.01 ± 0.11
2,IPKPRTAGKTSVKSART [SNF2],3.38 ± 0.1
3,IPLNRLSLDSDVKFPSN [SMC3],1.69 ± 0.059
4,IPRNSPLSDLKKRSQAK [RPC82],2.65 ± 0.26
5,IPSLANNGNNSTSIQYH [POP6],2.45 ± 0.054
6,IPSSKYAYMMNSQSPRG [YLR018C/POM34],2.78 ± 0.062
7,IPVIALTDLDSPSEFVD [RPS0A],2.68 ± 0.095
8,IQELRKLLKSLLLNYLE [MED7],1.71 ± 0.056
9,IQHVGMINGRKLIKFET [FAS1],2.82 ± 0.072
10,IQKGKFTLLDFKKQMQT [SRP54],1.27 ± 0.13
11,IQSQVFESLYNSNDSVF [BRR2],2.04 ± 0.053
12,IRAGEFDVVLTTFEYII [SNF2],2.31 ± 0.14
13,IRAHQTELTHHLLPRNE [QCR7],2.99 ± 0.1
14,IRALQPKLKEGALHFVQ [YIL149C/MLP2],2.77 ± 0.074
15,IRENKVTYSRVSKKVDV [BRN1],2.76 ± 0.1
16,IRFRIEREVFVDVKPKS [RPC25],2.13 ± 0.12
17,IRITSLQGDLTFTKKCL [SIR4],2.87 ± 0.068
18,IRKFFGLSKEDDVRDFV [RPS6A],3.43 ± 0.1
19,IRKIVRKDENQFSYVDS [AAR2],3.18 ± 0.12
20,IRNARSIRAEAVAASST [POP1],3.13 ± 0.24
21,IRTRRAAELLDKRIVIS [DIS3],1.5 ± 0.11
22,IRVLFKENGQLIGAATK [SEC65],1.97 ± 0.068
23,IRYNSVEIQEVPRTADR [RPC82],2.52 ± 0.063
24,ISELPPQIRQEIEQLDQ [YGL172W/NUP49],2.98 ± 0.084
25,ISIKDNKLVMKSKFNKS [GAL11],2.51 ± 0.057

row,Sequence,protein stability index
1,ISKQKSKLDYIFKDKEK [SMC1],2.78 ± 0.14
2,ISKTVRFNVVKVSAAAG [RPS11A],3.19 ± 0.17
3,ISLEALNFYITNVPKAK [SIR3],2.67 ± 0.065
4,ISMLVTQLQRGGTSDMN [CSI1],3.19 ± 0.1
5,ISQKLTNVNVKIKDVQQ [SMC3],1.97 ± 0.12
6,ISQVSSIHAIGSIKEDY [RPB7],2.27 ± 0.077
7,ISSEKLLTLTNAANVPV [RPP1A],2.95 ± 0.091
8,ISSLGYRSHIFATNEER [SWI3],2.3 ± 0.072
9,ISSRTYGQRAVLKFAAH [RPS0B],1.78 ± 0.064
10,ISTGGFMSNDGPTLEKY [SNU114],2.22 ± 0.068
11,ISVSSRSDREYPLLIRM [SRP14],2.56 ± 0.097
12,ISVTDTEVERAKSLLKL [COR1],3.3 ± 0.1
13,ITDKTIKAFMDSTIGNS [IRR1],2.54 ± 0.15
14,ITFLIEKAKEMIRLLGS [ECM29],2.6 ± 0.12
15,ITIQLTRDVEPENLQVT [BRR2],2.79 ± 0.083
16,ITKEVTQVNILKENNAI [YIL149C/MLP2],2.91 ± 0.057
17,ITKLNKEIRAFDKLLNI [SRB4],3.41 ± 0.098
18,ITLIDSASLHLNYGVYL [RET1],2.4 ± 0.076
19,ITMPATNGKPDMAILER [ARP7],3.17 ± 0.059
20,ITPSAMKLVPSIPPATI [RPB5],2.32 ± 0.054
21,ITRFGLSKMRDSVLQLA [RPO31],3.32 ± 0.14
22,ITYALSGYVRSRGESDD [RPS21B],1.74 ± 0.075
23,IVACELILSGDTTANNG [YJL039C/NUP192],2.66 ± 0.067
24,IVALSSEEINQYVTQIE [PRE6],3.1 ± 0.053
25,IVEADEKKGIVQASVTS [RET1],2.66 ± 0.15

row,Sequence,protein stability index
1,IVGQKNLNRAFNGDQVI [DIS3],3.12 ± 0.078
2,IVLSKAASALDEKEKQL [SIR4],3.35 ± 0.1
3,IVMQLRKCCNHPYLFEG [ISW2],2.78 ± 0.087
4,IVRDLDRPGSKFHKREV [RPL3],3.07 ± 0.14
5,IVSEDHIILDTISECNL [MED1],2.87 ± 0.093
6,IVVATEHNPSAHTASVG [COR1],2.7 ± 0.07
7,IWPAEDALRRGMLAMAS [MED4],3.12 ± 0.11
8,IYAGYDDRYGYQLYTSN [PRE9],2.99 ± 0.16
9,IYDFHKMENLMRLIKRV [YJL039C/NUP192],2.58 ± 0.097
10,IYDKKDHKYVCTFSMEP [SRB8],2.85 ± 0.076
11,IYEEVRAVLKSFLESVI [HHF1],3 ± 0.21
12,IYFTVPNEFEIQLSTVN [RGR1],2.21 ± 0.064
13,IYNELSYELIKEECQIE [CSN9],2.47 ± 0.08
14,IYQTLIALNLDTTVNDC [SNF2],2.19 ± 0.035
15,IYRGVLNDENSDDYDNE [SMC1],3.19 ± 0.24
16,IYYDSYIHLAYSRSVDK [SSN2],2.71 ± 0.13
17,KAASSTRIFQALPRKLR [POP1],2.64 ± 0.1
18,KAEMPPEHLRKIINTHS [PRP8],1.94 ± 0.089
19,KAFKICEAAVEISKKDF [SIR3],3.19 ± 0.13
20,KAKVEEMNNIIAASRRH [RPL36A],2.85 ± 0.084
21,KALDRHEFFIANHDDQD [SRP68],3.1 ± 0.058
22,KALKTNINFASGVKNDI [CDC53],3.09 ± 0.089
23,KATLELLKLIEPYVAYG [RPL7A],2.28 ± 0.078
24,KCPGCLNITTVFSHAQT [RPS27A],2.76 ± 0.046
25,KCPLLVEVDITLSPNVT [GRR1],1.8 ± 0.058

# Same assay, conditions: pdr5∆
row,Sequence,protein stability index
1,ILDLKEFDRRILKKSLM [RTT102],3.47 ± 0.23
